Values joined by “and” are separate entries in the source; they are usually repeats but may differ in a detail not shown here. Equal entries are not always repeated.
Legend:
D168A HCV replicon cells = assay: HCV replicon cell assay, 48-hour; type: cell-based, Hepatitis C virus; conditions: 48-hour assay
Text: (§1) During the course of generating of the HCV sub-genomic replicon stable cell lines, several different patterns of adaptive mutations were identified. One pattern has three substitutions in the HCV nonstructural proteins, which were introduced into the original pBR322-HCV-Neo plasmid by site-directed mutagenesis to generate the second-generation sub-genomic replicon plasmid, pBR322-HCV-Neo-mADE. When the T7 run-offRNA transcripts from the Sca I-linearized pBR322-HCV-Neo-mADE plasmid were electroporated into Huh7 cells, stable replicon cell colonies were formed at a much higher efficiency than the original Con1 replicon RNA. The resistance mutations identified in this study were introduced into the pBR322-HCV-Neo-mADE replicon plasmid by site-directed mutagenesis. Stable replicon cell lines were generated using the T7 transcripts derived from either wild type pBR322-HCV-Neo-mADE or the ones with the resistance mutations.
(§2) Cells containing hepatitis C virus (HCV) replicon were maintained in DMEM containing 10% fetal bovine serum (FBS), 0.25 mg per ml of G418, with appropriate supplements (media A).
(§3) On day 1, replicon cell monolayer was treated with a trypsin:EDTA mixture, removed, and then media A was diluted into a final concentration of 100,000 cells per ml with. 10,000 cells in 100 ul were plated into each well of a 96-well tissue culture plate, and cultured overnight in a tissue culture incubator at 37° C.
(§4) On day 2, compounds (in 100% DMSO) were serially diluted into DMEM containing 2% FBS, 0.5% DMSO, with appropriate supplements (media B). The final concentration of DMSO was maintained at 0.5% throughout the dilution series.
(§5) Media on the replicon cell monolayer was removed, and then media B containing various concentrations of compounds was added. Media B without any compound was added to other wells as no compound controls.
(§6) Cells were incubated with compound or 0.5% DMSO in media B for 48 hours in a tissue culture incubator at 37° C. At the end of the 48-hour incubation, the media was removed, and the replicon cell monolayer was washed once with PBS and stored at −80° C. prior to RNA extraction.
(§7) Culture plates with treated replicon cell monolayers were thawed, and a fixed amount of another RNA virus, such as Bovine Viral Diarrhea Virus (BVDV) was added to cells in each well. RNA extraction reagents (such as reagents from RNeasy kits) were added to the cells immediately to avoid degradation of RNA. Total RNA was extracted according the instruction of manufacturer with modification to improve extraction efficiency and consistency. Finally, total cellular RNA, including HCV replicon RNA, was eluted and stored at −80° C. until further processing.
(§8) A Taqman real-time RT-PCR quantification assay was set up with two sets of specific primers and probe. One was for HCV and the other was for BVDV. Total RNA extractants from treated HCV replicon cells was added to the PCR reactions for quantification of both HCV and BVDV RNA in the same PCR well. Experimental failure was flagged and rejected based on the level of BVDV RNA in each well. The level of HCV RNA in each well was calculated according to a standard curve run in the same PCR plate. The percentage of inhibition or decrease of HCV RNA level due to compound treatment was calculated using the DMSO or no compound control as 0% of inhibition. The cytotoxicity of the compounds was measured using a mitochondrial enzyme-based cell viability assay, CellTiter 96 AQueous One Solution Cell Proliferation Assay (Promega).
(§9) Four HCV sub-genomic replicon stable cell lines, including the wild type (wt), and three mutants, A156S, D168V and D168A, were generated using the T7 RNA runoff transcripts from the corresponding high efficiency Con1 replicon plasmids.

A156S HCV replicon cells = assay: HCV replicon cell assay, 48-hour; type: cell-based, Hepatitis C virus; conditions: read-out: IC50
Text: as §1, §2, §3, §4, §5, §6, §7, §8, §9

D168V HCV replicon cells = assay: HCV replicon cell assay, 48-hour; type: cell-based, Hepatitis C virus; conditions: D168V replicon cells, 48-hour assay; read-out: Replicon IC50
Text: as §1, §2, §3, §4, §5, §6, §7, §8, §9

[1] = tested on: series C (double-resistant) replicon cells; assay: HCV replicon cell assay, 48-hour; type: cell-based, Hepatitis C virus; conditions: series C replicon cells at day 52
Protocol: Culture plates with treated replicon cell monolayers were thawed, and a fixed amount of another RNA virus, such as Bovine Viral Diarrhea Virus (BVDV) was added to cells in each well. […]
A Taqman real-time RT-PCR quantification assay was set up with two sets of specific primers and probe. […] Total RNA extractants from treated HCV replicon cells was added to the PCR reactions for quantification of both HCV and BVDV RNA in the same PCR well. […] The level of HCV RNA in each well was calculated according to a standard curve run in the same PCR plate. The percentage of inhibition or decrease of HCV RNA level due to compound treatment was calculated using the DMSO or no compound control as 0% of inhibition. The cytotoxicity of the compounds was measured using a mitochondrial enzyme-based cell viability assay, CellTiter 96 AQueous One Solution Cell Proliferation Assay (Promega). […]

[2] = tested on: wild-type HCV Con1 sub-genomic replicon cells; assay: HCV replicon cell assay, 48-hour; type: cell-based, Hepatitis C virus; conditions: 48-hour assay
Protocol: as §2, §3
On day 2, compounds (in 100% DMSO) were serially diluted into DMEM containing 2% FBS, 0.5% DMSO, with appropriate supplements (media B). […]
as §8, with “One was for HCV and the other was for BVDV.” left out, “Experimental failure was flagged and rejected based on the level of BVDV RNA in each well.” left out

[3] = tested on: wild type HCV replicon cells (high efficiency Con1 replicon); assay: HCV replicon cell assay, 48-hour; type: cell-based, Hepatitis C virus; conditions: read-out: IC50
Text: as §1, §2
On day 1, replicon cell monolayer was treated with a trypsin:EDTA mixture, removed, and then media A was diluted into a final concentration of 100,000 cells per ml with. […]
as §8, with “One was for HCV and the other was for BVDV.” left out, “Experimental failure was flagged and rejected based on the level of BVDV RNA in each well.” left out, “(Promega). […]” for “(Promega).”

[4] = tested on: series A (VX-950-resistant) replicon cells; assay: HCV replicon cell assay, 48-hour; type: cell-based, Hepatitis C virus; conditions: series A (VX-950-resistant) replicon cells
Protocol: A Taqman real-time RT-PCR quantification assay was set up with two sets of specific primers and probe. […] Total RNA extractants from treated HCV replicon cells was added to the PCR reactions for quantification of both HCV and BVDV RNA in the same PCR well. […] The level of HCV RNA in each well was calculated according to a standard curve run in the same PCR plate. The percentage of inhibition or decrease of HCV RNA level due to compound treatment was calculated using the DMSO or no compound control as 0% of inhibition. The cytotoxicity of the compounds was measured using a mitochondrial enzyme-based cell viability assay, CellTiter 96 AQueous One Solution Cell Proliferation Assay (Promega).

A156V HCV replicon cells = assay: HCV replicon cell assay, 48-hour; type: cell-based, Hepatitis C virus
Text: as §1, §2, §3, §4, §5, §6, §7, §8
(§10) Table 6 summary: Three HCV sub-genomic replicon stable cell lines, including the wild-type, and two mutants, A156T and A156V, were generated using the T7 RNA runoff transcripts from the corresponding high efficiency Con 1 replicon plasmids.

A156T HCV replicon cells = assay: HCV replicon cell assay, 48-hour; type: cell-based, Hepatitis C virus; conditions: 48-hour assay
Text: as §1, §2, §3, §4, §5, §6, §7, §8, §10

[5] = Substrate kinetic parameters of NS3 serine protease domains with KK-NS4A peptide and FRET substrate; type: biochemical, Hepatitis C virus
Protocol: Enzymatic activity was determined using a modification of the assay described by Taliani et al., [Taliani et al., Anal. Biochem., 240, pp. 60-67 (1996)]. An internally quenched fluorogenic peptide (FRET substrate), Ac-DED(EDANS)EEαAbuψ[COO]ASK (DABCYL)-NH2, was purchased from AnaSpec Incorporated (San Jose, Calif.). The assay was run in a continuous mode in a 96-well microtiter plate format. The buffer was composed of 50 mM HEPES (pH 7.8), 100 mM NaCl, 20% glycerol, 5 mM DTT, and 25 μM KK4A peptide ([…]; SEQ ID NO:5). The KK4A peptide represents the central region of the NS4A cofactor from genotype 1a with lysine residues added for improved solubility [Landro et al. Biochemistry, 36, pp. 9340-9348 (1997)]. The reaction was initiated by the addition of the FRET substrate after a 10-min pre-incubation of the buffer components with 2 nM of the NS3 protease at room temperature. The reaction was monitored at 30° C. for 20 min using a Molecular Devices fmax fluorometric plate reader. The filters for excitation and emission wavelengths were 355 nm and 495 nm, respectively. For determination of substrate kinetic parameters, concentrations of the FRET peptide were varied from 0.5-7.0 μM. Inter-molecular quenching was not observed in this range. The substrate kinetic parameters, Km and Vmax, were determined by fitting the data to the Michaelis-Menten equation. […] This mixture was incubated for an additional 15 min at room temperature prior to an incubation with the FRET substrate for another 20 min at 30° C. Seven to eight concentrations of compound were assayed, and the resulting data were fitted to the integrated form of Morrison's equation for tight binding inhibition [J. F. Morrison, Biochim. Biophys. Acta, 185 pp. 269-286 (1969)]. All substrate and inhibitor data were fitted using Marquardt-Levenberg nonlinear regression with GraphPad Prism software.
Five HCV NS3 serine protease domain proteins, including the genotype 1a and 1b wild-type (wt) proteases, and three mutants (A156S, D168V, and D168A) of the genotype 1b, were expressed and purified as described in Materials and Methods. The kcat and Km values of these NS3 proteases were determined using the KK-NS4A core peptide and the FRET substrate.
Table 4 summary: Three HCV NS3 serine protease domain proteins of the Con1 strain, including the wild-type proteases and two mutants, A156T and A156V, were expressed and purified. The kcat and Km values of these NS3 proteases were determined using the KK-NS4A core peptide and the FRET substrate, and the average of two independent assays was shown.

[6] = Table 1, FRET substrate, KK-NS4A core peptide
[7] = Table 4, Con1 strain, average of two independent assays

BILN 2061 [reference compound]
IC50 (D168A HCV replicon cells): 1860 nM
IC50 (A156S HCV replicon cells): 7 nM
IC50 (D168V HCV replicon cells): 5090 nM and 4650 nM
IC50 [1]: ~3000 nM
IC50 higher than against the series A replicon cells [1]: 300 fold
IC50 [2]: 1 nM
IC50 [3]: 4 nM
IC50 [4]: ~10 nM
decrease in sensitivity conferred by the mutation (A156V HCV replicon cells): more than 1.400 fold
IC50 (A156V HCV replicon cells; 48-hour assay): 5760 nM
IC50 (A156T HCV replicon cells): 1090 nM

B1: D168A (1b) (protein)
chain: APITAYSQQTRGLLGCIITSLTGRDRNQVEGEVQVVSTATQSFLATCVNGVCWTVYHGAGSKTLAGPKGPITQMYTNVDQDLVGWQAPPGARSLTPCTCGSSDLYLVTRHADVIPVRRRGDSRGSLLSPRPVSYLKGSSGGPLLCPSGHAVGIFRAAVCTRGVAKAVAFVPVESMETTMRSHHHHHH
change of substrate kinetic parameters (kcat, kcat/Km) compared with wild type ([5]; FRET substrate): less than 10 fold
Kcat [5, 6]: 0.3 s⁻¹
Km [5, 6]: 2 µM

B2: A156T (protein)
chain: APITAYSQQTRGLLGCIITSLTGRDRNQVEGEVQVVSTATQSFLATCVNGVCWTVYHGAGSKTLAGPKGPITQMYTNVDQDLVGWQAPPGARSLTPCTCGSSDLYLVTRHADVIPVRRRGDSRGSLLSPRPVSYLKGSSGGPLLCPSGHAVGIFRTAVCTRGVAKAVDFVPVESMETTMRSHHHHHH
Kcat [5, 7]: 0.2 s − 1
Km [5, 7]: 1.3 µM

B3: Wt (1b): wild-type HCV NS3 serine protease domain, genotype 1b (Con1 strain) (protein)
chain: APITAYSQQTRGLLGCIITSLTGRDRNQVEGEVQVVSTATQSFLATCVNGVCWTVYHGAGSKTLAGPKGPITQMYTNVDQDLVGWQAPPGARSLTPCTCGSSDLYLVTRHADVIPVRRRGDSRGSLLSPRPVSYLKGSSGGPLLCPSGHAVGIFRAAVCTRGVAKAVDFVPVESMETTMRSHHHHHH
Kcat [5, 6]: 1.0 s⁻¹
Km [5, 6]: 1.1 µM
Kcat [5, 7]: 1.0 s − 1
Km [5, 7]: 1.1 µM

B4: A156V (protein)
chain: APITAYSQQTRGLLGCIITSLTGRDRNQVEGEVQVVSTATQSFLATCVNGVCWTVYHGAGSKTLAGPKGPITQMYTNVDQDLVGWQAPPGARSLTPCTCGSSDLYLVTRHADVIPVRRRGDSRGSLLSPRPVSYLKGSSGGPLLCPSGHAVGIFRVAVCTRGVAKAVDFVPVESMETTMRSHHHHHH
Kcat [5, 7]: 0.6 s − 1
Km [5, 7]: 2.6 µM

B5: A156S (1b) (protein)
chain: APITAYSQQTRGLLGCIITSLTGRDRNQVEGEVQVVSTATQSFLATCVNGVCWTVYHGAGSKTLAGPKGPITQMYTNVDQDLVGWQAPPGARSLTPCTCGSSDLYLVTRHADVIPVRRRGDSRGSLLSPRPVSYLKGSSGGPLLCPSGHAVGIFRSAVCTRGVAKAVDFVPVESMETTMRSHHHHHH
Kcat [5, 6]: 0.6 s⁻¹
Km [5, 6]: 0.9 µM

B6: D168V (1b) (protein)
chain: APITAYSQQTRGLLGCIITSLTGRDRNQVEGEVQVVSTATQSFLATCVNGVCWTVYHGAGSKTLAGPKGPITQMYTNVDQDLVGWQAPPGARSLTPCTCGSSDLYLVTRHADVIPVRRRGDSRGSLLSPRPVSYLKGSSGGPLLCPSGHAVGIFRAAVCTRGVAKAVVFVPVESMETTMRSHHHHHH
Kcat [5, 6]: 0.6 s⁻¹
Km [5, 6]: 1.2 µM

— patent publication US7884199B2, “HCV NS3-NS4 protease resistance mutants” (priority 2003, dated 2011)
